{"source": "paper PMC10920887", "about": "“Natural variation in BnaA9.NF-YA7 contributes to drought tolerance in Brassica napus L”", "binders": {"B1": {"name": "BnaA9.NF-YA7 promoter ABRE probe (dsDNA)", "DNA 1": "ATCTGCCCGTAATCTGCTACGTGCAATCTAAACGCTT", "DNA 2": "AAGCGTTTAGATTGCACGTAGCAGATTACGGGCAGAT"}}, "molecular_target": "T1, BnaA3.ABF4 (Brassica napus, UniProt X2C209 1-395)", "T1 sequence": "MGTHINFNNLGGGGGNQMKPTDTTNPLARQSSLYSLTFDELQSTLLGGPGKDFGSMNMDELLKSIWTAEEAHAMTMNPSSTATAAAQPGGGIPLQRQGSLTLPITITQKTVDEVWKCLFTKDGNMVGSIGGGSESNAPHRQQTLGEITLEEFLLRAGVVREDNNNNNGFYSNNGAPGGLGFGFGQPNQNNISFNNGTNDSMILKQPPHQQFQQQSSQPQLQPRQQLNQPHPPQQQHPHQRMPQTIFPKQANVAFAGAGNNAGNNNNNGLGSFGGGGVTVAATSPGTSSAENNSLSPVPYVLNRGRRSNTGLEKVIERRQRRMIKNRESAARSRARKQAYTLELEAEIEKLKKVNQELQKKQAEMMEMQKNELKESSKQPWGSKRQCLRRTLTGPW", "test": "EMSA; not given in the material", "settings": "protein: recombinant; tags: GST (N-term, pGEX-4T-1); chain copies: 2; label: biotin"}
{"binder": "B1", "values": [{"measurement": "binding result", "result": "binds"}]}
